{
  "source": "the DeepSol protein solubility set",
  "data": [
    {"test": "soluble on expression in E. coli; label from the status in PepcDB or PDB records", "values": [
      {"sequence": "QKFIARNRAPRVQIEYDVELYGAEKKVQLPFVMGVMADLAGKPAEPQAAVADRKFLEIDVDNFDARLKAMKPRVAFNVPNVLTGEGNLSLDITFESMDDFSPAAVARKVDSLNKLLEARTQLANLLTYMDGKTGAEEMIMKAIKDPALLQALASAPKPK", "soluble on expression in E. coli": "not soluble"},
      {"sequence": "QLNQILRAANLHSFAVANLRQVEHATRPTKTMSAGLTIINVPAFYSSQHQLQKQYWTQLQHLIKQTKPTTDLILNFAANTGGSSAPMIAGLAAIIPDGTIYTGITNHHRNRPRMMYHGRITGGLGQDDVNFSQPTAAHFRHIYAIIGNQTASAAEVTIMALKRNPHVTLVGRSSAGYTSLNGGVFLNTAVAVMTIGTLKATVKIHGQQYFNNQPLKPDIPTLYQPLAPLQLGQSPHLDADFLSELRTIMKHYH", "soluble on expression in E. coli": "not soluble"},
      {"sequence": "QLPTIYAITPTYSRPVQKAELTRLANTFRQVAQLHWILVEDAAARSELVSRFLARAGLPSTHLHVPTPRRYKRPGLPRATEQRNAGLAWLRQRHQHQRAQPGVLFFADDDNTYSLELFQEMRTTRKVSVWPVGLVGGRRYERPLVENGKVVGWYTGWRADRPFAIDMAGFAVSLQVILSNPKAVFKRRGSQPGMQESDFLKQITTVEELEPKANNCTKVLVWHTRTEKVNLANEPKYHLDTVKIEV", "soluble on expression in E. coli": "soluble"},
      {"sequence": "QNNKDEKKITKIGVLQFVSHPSLDLIYKGIQDGLAEEGYKDDQVKIDFMNSEGDQSKVATMSKQLVANGNDLVVGIATPAAQGLASATKDLPVIMAAITDPIGANLVKDLKKPGGNVTGVSDHNPAQQQVELIKALTPNVKTIGALYSSSEDNSKTQVEEFKAYAEKAGLTVETFAVPSTNEIASTVTVMTSKVDAIWVPIDNTIASGFPTVVSSNQSSKKPIYPSATAMVEVGGLASVVIDQHDLGVATGKMIVQVLKGAKPADTPVNVFSTGKSVINKKIAQELGITIPESVLKEAGQVI", "soluble on expression in E. coli": "not soluble"},
      {"sequence": "QNPSIYCAGHGIYWVAYDMGTALSTGPVKVEAETSGDIDGRIYGIVLAAVYEDKEGQDTRYWVEEGNINLHDKGRSEEASSTHDEAYADFSGKVDVDRYKTANLAAVYLCGSPGLGDSLYFNDEQLSDGENSNDIANSKSYFDLKFFDVLDFLAEDDNELRFQRDDEDYLHPVFAALSLGTEEEGSSDLIVSGVTLPVLYAGQENIIKANIKNIGRDSAYGFQAALYADNEIVSTASVSSLSSGKSKTIDFNWKPGRSGEHVLKVSVDYTNRKKELCEINNWNIPFLANIIDLTPPEIEIDSPLDGSSVSSGYLKVSGTVEDTSRNTTVDVNGQKALLADKRWSADIPVAPGPNKIVVSAVDGTNNTGKEFILVTGISSGSGNNESFVSGGEREHVNRKVNAEPVSSTIPVYRSDI", "soluble on expression in E. coli": "not soluble"},
      {"sequence": "QRDDVTGVQTLAGNLDPTQWTKTKSLSPLSGSLDPLDYTQRLALIPQRHFSGAGDEMIPTELAERYNRLLGNTACSQLIIVAGATHETGWEEAWKVWRGL", "soluble on expression in E. coli": "not soluble"},
      {"sequence": "QREIQGVRHFVADLSEAARLGLVPGEHYFCVSSIRVDRQHDGAPLCWTDVYAQRDYTAVIELAREHPDQLIAGLIEQHYGRAIAVVDQQVRAVLLTAEMARALKAEAGSPGLKIIRHYREENGDLMAVSETVHPDDRFT", "soluble on expression in E. coli": "not soluble"},
      {"sequence": "QRQPGHFCRSVLLAPVGAFLWQRSLPALMSPLPIRKTIHWLLANKPKLFAHKFSRHAWPDSHYRRMGAGYARCRAFIPYWDMVRADTALPLLEWVQDPIELVWGDQDKVLGIDQAAAWSAILARADLTISLKPGWGHYPWIDSPAEFAQWLES", "soluble on expression in E. coli": "not soluble"},
      {"sequence": "QSKDGSVRHSGDNRTGQGDGDDETITVDLTRLPAAVTTVIFSVNNYTGQDFGQVENAYCRLVNTQGGQEIARYNLSVQGNHSAMILASLKRQGGDWAMTAIGAPSR", "soluble on expression in E. coli": "not soluble"},
      {"sequence": "QSNAIWGLDRIDQRNLPLDRNYNANFDGFGVTAYVIDTGVNNNHEEFGGRSVSGYDFVDNDADSSDCNGHGTHVAGTIGGSQYGVAKNVNIVGVRVLSCSGSGTTSGVISGVDWVAQNASGPSVANMSLGGGQSTALDSAVQGAIQSGVSFMLAAGNSNADACNTSPARVPSGVTVGSTTSSDSRSSFSNWGSCVDLFAPGSQIKSAWYDGGYKTISGTSMATPHVAGVAALYLQENNGLTPLQLTGLLNSRASENKVSDTRGTTNKLLYSLADSGCEPDCGGP", "soluble on expression in E. coli": "soluble"},
      {"sequence": "QTVAIKMGADNGMLAFEPSTIEIQAGDTVQWVNNKLAPHNVVVEGQPELSHKDLAFSPGETFEATFSEPGTYTYYCEPHRGAGMVGKIVVQ", "soluble on expression in E. coli": "soluble"},
      {"sequence": "QTVIKGLVLAADNEAPVSYASIYVAETKSGVVADESGRFILRLHPGRYRLAIRSMGYTPLETELLVGEKSEEKTFRLSSVIYDLKEVEVIGKRPKEDPAYPIMRELIARTPVYEHMVKSYQAKVYTKGSMRLDKLPFWLRYKKADGISAKDLEKKRFVIESQASLEFRHPNKYNKQVRAMRSSIPDDLKSDTTDYMQIISTNIYAKEFSLDGIVNMASPIRTGVLESYTYKLEGTSREKERKVYHISFKGRRDAMRGELWVIDSIWCLQALKLEIKAYDMIRYKVDISLNPLEKDVYLPTTYAIGMEMQSMGLKLEYQYFSSLVYDSLEIDRKLLSTARRAEGLRFRTNREVNRHLRMLESRLDTLGYHLPDKYMLPDTELQAKVRFDSLAFDRDSSYWDAVVTAPLTDEEAQSYANRDSLMQAFEKKRRFGGGREGERTGRTSILGAILGGHDYKMGEGTTLGFNGLIRGSLYDYRYTDGFWLGQSFFFRQKFSKGVDLTLRPILYYTTHRRKLYWDVRADFRYAPLSGGLLSLSAGRQSADLTGPFANTDWRIQTFLTTLVDGRGHLMLYDKKYLRLSNQIDLLPGLQLFLFAEGRHSSPLAENRVWGIFKKPIKNKLIGGIASSPDSLLYSMPDHRSLTVGGSIRYNPAPYYRLDKDGRKRYDGVGTRAPLFGLTYRQAIPLGREHDSDYIYLSGSVRQNLRLNPLHSLYYHFTVGSYFRRHTVHLDEQRYLKADNALFQIGGTLHDSFQTLPPYSYTDQNFLILQTR", "soluble on expression in E. coli": "not soluble"},
      {"sequence": "QVQLQQSGAELVRPGVSVKISCKGSGYTFTDYGMHWVKQSHAKSLEWIGIISTYSGDASYNQKFKGKATMTVDKSSSTAYMELARLTSEDSAIYYCARSSTWYYFDYWGQGTTLTVSSAKTTAPSVYPLAPVCGDTTGSSVTLGCLVKGYFPEPVTLTWNSGSLSSGVHTFPAVLQSDLYTLSSSVTVTSSTWPSQSITCNVAHPASSTKVDKKIEPR", "soluble on expression in E. coli": "soluble"},
      {"sequence": "QVQLQQSGPELVRPGVSVKISCKGSGYTFIDEALHWVKQSHAESLEWIGVIRPYSGETNYNQKFKDKATMTVDISSSTAYLELARLTSEDSAIYYCARDWERGDFFDYWGQGTLVTVSSASTKGPSVFPLAPSSKSTSGGTAALGCLVKDYFPEPVTVSWNSGALTSGVHTFPAVLQSSGLYSLSSVVTVPSSSLGTQTYICNVNHKPSNTKVDKKVEPKSCD", "soluble on expression in E. coli": "soluble"},
      {"sequence": "QVQLQQSGTELVKSGASVKLSCTASGFNIKDTHMNWVKQRPEQGLEWIGRIDPANGNIQYDPKFRGKATITADTSSNTAYLQLSLTSEDTAVYYCATKVIYYQGRGAMDYWGQGTTLTVS", "soluble on expression in E. coli": "soluble"},
      {"sequence": "QVQLVQSGGGLVKPGGSLRLSCAASGFTFSSYAMSWVRQAPGKGLEWVSAISGSGGSTYYADSVKGRFTISRDNSKNTLYLQMSSLRAEDTAVYYCARPYLTYPQRRGPQNVSPFDNWGQGTMVTVSSASTKGPSVFPLAPSSKSTSGGTAALGCLVKDYFPEPVTVSWNSGALTSGVHTFPAVLQSSGLYSLSSVVTVPSSSLGTQTYICNVNHKPSNTKVDKKVEPKSCAAAHHHHHHGAAEQKLISEEDLNGAA", "soluble on expression in E. coli": "soluble"},
      {"sequence": "RALEDEDMRKVFSRLSKSSTIPSDLRRTKELFILMFLLRGLPFVDLAYLRKSDLRGNVITYRRRKTGRSLSVTLTPESMLLLEKHISRDLSSPYLFPILHSIEGSQEAYREYQLALRSFNQHLELLGQWLGLESKLSSYTARHTWATTAYYCEIHPGIISEAMGHSSITVTETYLKPFRNRKIDEAN", "soluble on expression in E. coli": "not soluble"},
      {"sequence": "RDLAVAILMDCSRSTEASVGERTVIDTAREALAALAAGIDVAGDRQAIWGFSSLRRDRVFLHLCKRFDEPMGPAVTARIGGLRPGHYTRLGAAIRHASARLNEEAASRKLLLVLTDGKPNDLDHYEGVHGIEDSRMAVREARALSQAVHGVVIDADGQDWFARIFGRAGFTLLPEPARLARALPDLYRSLTQEI", "soluble on expression in E. coli": "not soluble"},
      {"sequence": "RELIHFAHGNGFPSLCYKQLLEQLETRFDCCFIDKIGHDPDYPVGENWHNLVAEIIASIKRQAEQPVIAVGHSLGGVLSLLAAIEQPKLFKAVIMLDSPLIGAFKSSMVRLAKALGIIDRVTPAFRTKKRREHWQNYEQLISYLKTRDLFKTFTEECLNDYIKYGLQYKEDGYYLRFDRHVEYQIYRTIPHVIPRYKGKLIVPAALIYGDKSTVVDRMDIRYMKNHFNVKCFKTMGTHLFPMEHPKAVGKQVIEVIDAII", "soluble on expression in E. coli": "not soluble"},
      {"sequence": "RGNLGQSQKVLIEFVSANPTGPLHVGHGRGAAFGATLGNVLKAAGYDVTLEYYVNDAGRQMNILAVSVWLRYLELAGEPIVFPANGYKGQYVYEIAQEIWSEQGNQFVHPWISVVENLPADEPEGGDKETYIDAIIARAQSLLGKDGFANFHQHALKTVLDDIKDDLQAFGVRFDSWFSEQSLFEDGSIEKGIQALKDRGHTYEREGALWFRATDFGDEKDRVLVRANGQTTYFASDVAYHWNKYDRGFDRVIDIFGADHHGYVTRIKTAVKALGHDESALDVILVQFAILYRGGDRVQMSTRSGSFVTLRELREEVGNDAARYFYVARKPEQHMDFDLDLAKSESSDNPVYYIQYAHARICSVLRQLKERGLKWDKDMGL", "soluble on expression in E. coli": "not soluble"},
      {"sequence": "RGSHHHHHHGSMGDNIVLYYFDARGKAELIRLIFAYLGIEYTDKRFGVNGDAFVEFKNFKKEKDTPFEQVPILQIGDLILAQSQAIVRYLSKKYNICGESELNEFYADMIFCGVQDIHYKFNNTNLFKQNETTFLNEDLPKWSGYFEKLLKKNHTNNNNDKYYFVGNNLTYADLAVFNLYDDIETKYPSSLKNFPLLKAHNEFISNLPNIKNYITNRKESVY", "soluble on expression in E. coli": "soluble"},
      {"sequence": "RIAISNSNRTRSVPSLTTIWSISPTPNCSIYETQDANLFLCLTKNGAHVLGTITIKGLKGALREMHDNALSLKLPFDNQGNLLNCALESSTWRYQETNAVASNALTFMPNSTVYPRNKTAHPGNMLIQISPNITFSVVYNEINSGYAFTFKWSAEPGKPFHPPTAVFCYITEQGSHHHHHH", "soluble on expression in E. coli": "soluble"},
      {"sequence": "RIEDIETKNIQYEERVSVQADLGSQTLHVRGLIDSGNQLYDPLTKTPVMIIYIDKLEPIFGTAETMIIRNTDPLEAIEQLDDSFRFLDKMRLIPYRGVGQQNQFLLCVKPDHVTIMTKEEMISADKCLIGISTTKLSADGEFDAIIHPKMLSGKAVKHVS", "soluble on expression in E. coli": "soluble"},
      {"sequence": "RNFKMIDNLSKVYGVELGYASRIKLLRAVFVNMAAAGASELAIDAGMDLMSMDLAGKVSARAGQGLGVGILTARLGLKAMALLRPLPWYPDRQVKLGTIRKAVVAKVASITMKP", "soluble on expression in E. coli": "not soluble"},
      {"sequence": "RRIGKVNLRHNRGFLTPELKRNFLRYTLFYVVASIGSKLSSRLDLFMVSSLDKGGLDSGGIFSIAFYMVAVVEIPSRSLLSVSSPLMADAMKRNDLVKADELFKRVSLHQ", "soluble on expression in E. coli": "not soluble"},
      {"sequence": "RRLIRLSDKTIAKSLNTSKFGGDELRRIGFHIRFHRAGALFARCWLLVEGETEVWLFNELARQCGYDLAAEGVQIVEFAQSGLRSLIKVAKEFGIDWHVVTDGDPAGKKYAHTVRAQLGHDQERHRLTELPDRDIEHFLYNHGFELFFKDMIKVPHDHPIPAKKVVNRVLKKHAKPDLALAIVSHCEEKGMECIPVLLRWTLKRIVTMASGNT", "soluble on expression in E. coli": "not soluble"},
      {"sequence": "RSGVLITDKPKKKDKKEEPAALQTTVQSMLISRPRELEAEVVRFQNNREKWIAFVGLKDGRPYEIFTGIADDDEGIMVPKSVTHGKIIKNRDENGERHYDFQFCNKKGFKVTIEGLDSKFNPEYWNYAKLISGVLRYGMPIEQVVHLVQGMSLNDESINTWKNGVERALKRYLPNGTTLSGQVCPSCGQETLVYQEGCLLCTSCGASKCG", "soluble on expression in E. coli": "not soluble"}
    ]}
  ]
}
